Substitutions are numbered along the chain they refer to.
T1: Human OSCAR-ECD (recombinant extracellular domain of human OSCAR) (human, UniProt Q8IYS5 19-218)
T1 construct: also called OSACAR-ECD
T1 chain: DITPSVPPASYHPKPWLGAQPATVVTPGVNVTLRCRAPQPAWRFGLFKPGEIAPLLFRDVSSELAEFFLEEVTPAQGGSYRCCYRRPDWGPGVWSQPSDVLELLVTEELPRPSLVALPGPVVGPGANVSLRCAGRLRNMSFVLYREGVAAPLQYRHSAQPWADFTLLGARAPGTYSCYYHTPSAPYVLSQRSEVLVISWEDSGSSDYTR

T2: Human OSCAR (osteoclast-associated receptor), full length, on cells (human)
T2 construct: The signal peptide limits cannot be read from the text; also called hOSCAR; HEK-OSCAR cells
T2 chain: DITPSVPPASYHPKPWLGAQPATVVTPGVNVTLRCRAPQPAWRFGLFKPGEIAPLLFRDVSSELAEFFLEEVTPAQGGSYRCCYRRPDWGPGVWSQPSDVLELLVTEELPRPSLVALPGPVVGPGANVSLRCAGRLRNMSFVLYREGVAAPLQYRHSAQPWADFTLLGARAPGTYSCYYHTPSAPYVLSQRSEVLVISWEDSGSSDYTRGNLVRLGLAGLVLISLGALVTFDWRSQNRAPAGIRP

B1: 6F6B (antibody, V domains shown)
VH: EVQLQQSGAELVKPGASVKLSCTASGFNIKDTYVHWVKQRPDQGLEWIGRIDPAIGNTKYDPKFRGKATITADSSSNTAYLQLSSLTSEDTAVYYCARLSYGNYGLDYSMDYWGQGTSVTVSS
VL: DIVLTQSPATLSVTPGDSVSLSCRASQSITNNLHWYQQKSHESPRLLIKYASQSISGIPSRFRGSGSGTDFTLSINSVETEDFGVYFCQQSNTWPRTFGGGTKLEIKR
notes: Mouse anti-OSCAR mAb
B2: 6F3A (antibody, V domains shown)
VH: B1 VH
VL: B1 VL
notes: Mouse anti-OSCAR mAb
B3: 7F10A1 (antibody, V domains shown)
VH: QVQLQQSGAELARPGASVKLSCKASGYTFTDNYINWVKQRTGQGLEWIGEIYPGSGNTYYNEKFKGKATLTADKSSSTAYMQLSSLTSEDSAVYFCARSANRYDRGDFDYWGQGTPLTVSS
VL: QILLTQSPAIMSASPGEKVTMTCSASSSVSYMHWYQQKPGSSPKPWIYDTSNLASGFPARFSGSGSGTSYSLIISSMEAEDAATYYCHQRSSYPYTFGGGTKLEIKR
notes: Mouse anti-human OSCAR mAb; The heavy chain entry covers only VH-CH1 and the start of the hinge
B4: 7F14A1 (antibody, V domains shown)
VH: QVQLKESGPGLVAPSQSLSITCSVSGFSLTSYGVHWVRQPPGKGLEWLGVMWAGGSTNYNSALMSRLSISKDNSKSQVFLKMNSLQTDDSAMYYCALQKGYGNYFDYWGQGTTLTVSS
VL: QIVLTQSPAIMSASPGEKVTMTCSASSSVNYMHWYQQKSGTSPKRWIYDTSNLASGVPTRFSGSGSGTSYSLTISSMEAEDAATYYCQQWSSDPLTFGAGTKLELKR
notes: Mouse anti-human OSCAR mAb; also called 7F14A4
B5: 16F119 (antibody, V domains shown)
VH: QVQLVQSGAEVKKPGSSVKVSCKVSGGTFSNYAISWVRQAPGQGLEWMGRIIPILGIAAYAQRFRDRVTITADKFTSTVYMELSSLRSEDTAVYYCASGQLGTPYWYFDLWGRGTLVTVSS
VL: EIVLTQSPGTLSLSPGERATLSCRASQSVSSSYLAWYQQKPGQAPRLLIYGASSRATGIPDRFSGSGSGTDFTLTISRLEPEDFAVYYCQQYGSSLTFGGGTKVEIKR
notes: Fully human mAb from HuMab mice; also called 16F119 (Hu); 16F119A5
B6: 7F1A1 (antibody, V domains shown)
VH: QVQLQQSGAELVRPGTSVKVSCKASGYAFTNYMIEWVKKRPGQGLEWIGVINPGSGGTNYNEKFENKATLTADKSSSTAYMQLSSLTSDDSAVYFCARSLDFDGAWFAYWGQGTLVTVSA
VL: DIQMTQSPASLSVSVGETVTITCRASEKIYSNLAWYQQKQGKSPQLLVYAATNLADGVPSRFSGSGSGTQFSLKINSLQPEDFGSYYCQHFWGIPWTFGGGTKLEIKR
notes: as for B3
B7: 7F21A1 (antibody, V domains shown)
VH: QVQLQQSGAELVRPGTSVKVSCRSSGYAFTNYLIEWIKQRPGQGLEWIGVITPGSGGTNYNENFKDKATLTADKSSNTAYMQLTSLTSDDSAVYFCARSFDYDGAWFAYWGQGTLVTVSA
VL: B6 VL with S77N, P80S, I94T
notes: as for B3
B8: 16F56 (antibody, V domains shown)
VH: QVQLVQSGAEVKKPGSSVKVSCKASGGTFSNYAISWVRQAPGQGLEWMGRIIPILGIAHNAQKFQDRVTITADKSTSTAYMELSSLRSEDTAVYYCASPSSGKGLPYWFFDLWGRGTLVTVSS
VL: DIQMTQSPSFLSASVGDRVTITCRASQSISSYLNWYQQKPGKAPKLLIYAASSLQSGVPSRFSGSGSGTDFTLTISSLQPEDFATYYCQCGYSTPLTFGGGTKVEIKR
notes: Fully human mAb from HuMab mice; also called 16F56 (Hu); 16F56A2
B9: 7F6A1 (antibody, V domains shown)
VH: DVKLVESGGGLVKPGGSLKLSCAASGFTFSSYVMSWVRQTPEKRLEWVATISSGGSYTYYPDSVKGRFTISRDNAKNTLYLQMSSLKSEDTAMYYCTREGGNSPDYWGQGTTLTVSS
VL: ENVLTQSPAIMSASPGEKVTMTCSVSSSISYMHWYRQKSFTSPQLWIYDTSKLASGVPGRFSGSGSGISYSLTISSMEAEDVATYYCFQGSEYPLTFGAGTKLELKR
notes: as for B3

Biological target: T1, Human OSCAR-ECD (recombinant …)
Assay: SPR competition, 50 nM OSCAR-ECD premixed with mAb, over immobilised collagen I
Protocol: (§1) The experiment was performed using a Biacore T 100 instrument (GE Healthcare). Human collagen 1 (Sigma, # C5483) and human collagen 2 (Millipore #CC052) were diluted with 10 mM NaOAc, pH 4.5 and immobilized on a Biacore CM3 sensor chip (GE Healthcare) using amine coupling chemistry (GE Healthcare). Immobilization was performed according to the standard procedure, but at 5° C. in order to prevent aggregation collagens, with immobilized levels of ca 250 RU on flow cells (FC) 2 and 4. A blank immobilization was performed on FC 1 & 3, which were used as reference cells. HBS-EP buffer (10 mM HEPES, 150 mM NaCl, 3 mM EDTA, 0.05% Polysorbat P20, pH7.4) was used as running buffer for the immobilization. Buffer containing HBS-EP/+0.1% BSA was used for the competition assay. The competition experiment was performed at 5° C. at a flow rate of 50 μl/min. […] OSCAR was mixed with various concentrations of anti-OSCAR antibodies ranging from 0-10 μg/ml prior to injection. Binding curves were measured for 360 s followed by 240 s of dissociation. The chip surface was regenerated for 2×20 s with 10 mM glycine, pH 2.0 between assays.
(§2) Human collagen I and II were immobilized to the surface of a Biacore sensor chip by amine coupling. […] It was hypothesized that an antibody inhibiting binding of OSCAR to collagen would lead to a concentration-dependent loss of signal, whereas a non-inhibiting antibody would enhance the signal due to the increased mass of the OSCAR-antibody complex.

| binding of OSCAR-ECD to collagen I with 10 µg/mL mAb | Binder |
| --- | --- |
| 1.7 | B1 |
| 9.5 | B2 |
| 55 | B3 |
| 56.3 | B4 |
| -3.4 | B5 |
| 145 | B6 |
| 144 | B7 |
| -3.2 | B8 |
| 19.2 | B9 |

Biological target: T1, Human OSCAR-ECD (recombinant …)
Assay: SPR (Biacore T100), mAb coupled or captured on chip, OSCAR-ECD injected, 1:1 fit
Protocol: The kinetic parameters (kₐ, kd and KD) for the interaction were calculated using a 1:1 interaction Langmuir fitting model.

| Kd [nM] | Binder |
| --- | --- |
| 18 | B3 |
| 4.5 | B4 |
| 0.5 | B5 |
| 2.7 | B6 |
| 18 | B7 |
| 0.3 | B8 |
| 2.7 | B9 |

Biological target: T2, Human OSCAR (osteoclast-associated …)
Assay: flow cytometry on primary human monocytes, donor #2
Protocol: (§3) Cell number and viability were determined using a Cedex cell counter. The cells were diluted in washing buffer (1×PBS (—Ca²⁺/—Mg²⁺)+5% FBS+0.1% Na-azide) to […]. In the case of monocytes, the cells were further blocked by adding 10 μl of a hFcR blocker (Miltenyi, #130-059-901) and incubated for 10 minutes at 4° C. 50 μl of cells (50.000 cells/well) were seeded into 96 well round-bottomed microtiter plates. Hybridoma supernatants or purified antibodies (in serial dilutions) were added to the cells at 50 μl/well. The isotype-matched purified irrelevant human mAb or mouse mAb served as negative controls (mouse IgG1, BD, #553452; mouse IgG2a, BD, #557353; mouse IgG2b, BD, #557352). […] Cells were washed in PBS, re-suspended in fixation buffer (1×PBS (—Ca²⁺/—Mg²⁺), pH7.2+1% formalin (B&B, #LAB96751.0500) and analysed by FACS flow cytometer. EC₅₀ values were calculated using a GraphPad Prism 5 software.

| EC50 [nM] | Binder |
| --- | --- |
| 0.12 | B3 |
| 0.55 | B4 |
| 0.12 | B6 |
| 0.01 | B7 |
| 0.14 | B9 |

Biological target: T2, Human OSCAR (osteoclast-associated …)
Assay: flow cytometry on primary human monocytes, donor #1
Protocol: as §3

| EC50 [nM] | Binder |
| --- | --- |
| 1.2 | B3 |
| 2.47 | B4 |
| 1.21 | B6 |
| 9.48 | B7 |
| 3.48 | B9 |

Biological target: T1, Human OSCAR-ECD (recombinant …)
Assay: SPR competition, 50 nM OSCAR-ECD premixed with mAb, over immobilised collagen II
Design: unit not given here
Protocol: as §1, §2

| binding of OSCAR-ECD to collagen II with 10 µg/mL mAb | Binder |
| --- | --- |
| 1 | B1 |
| 13.8 | B2 |
| 102 | B3 |
| 83.6 | B4 |
| -1.5 | B5 |
| 335 | B6 |
| 319 | B7 |
| -1.9 | B8 |
| 19.3 | B9 |

Biological target: T2, Human OSCAR (osteoclast-associated …)
Assay: cell-based or functional assay

| IC50 (IL-8), ColI-induced IL-8 release from moDC, Donor 4 [nM] | IC50 (IL-8), ColI-induced IL-8 release from moDC, Donor 5 [nM] | IC50 (IL-8), ColI-induced IL-8 release from moDC, Donor 6 [nM] | IC50 (IL-8), ColI-induced IL-8 release from moDC, Donor 1 [nM] | IC50 (IL-8), ColI-induced IL-8 release from moDC, Donor 3 [nM] | IC50 (IL-8), ColI-induced IL-8 release from moDC, Donor 2 [nM] | Binder |
| --- | --- | --- | --- | --- | --- | --- |
| 0.86 | > 20 | 6.56 | – | – | – | B1 |
| 0.69 | > 20 | 8.06 | – | – | – | B2 |
| 2.06 | – | – | 0.49 | 1.59 | – | B3 |
| – | – | – | 0.23 | 0.62 | – | B4 |
| 0.02 | 0.46 | 1.12 | – | – | – | B5 |
| 0.03 | – | – | < 0.1 | 0.1 | < 0.1 | B6 |
| 0.11 | – | – | – | 0.64 | 0.02 | B7 |
| 0.06 | 0.1 | 0.21 | – | – | – | B8 |
| – | 2.49 | 1.28 | – | 0.91 | – | B9 |
